This is an account of results in the supplement of paper PMC9170038.

For the data set, the system named is MS2 coat protein. The data set can be described thus: apparent KD of MS2 coat protein; higher = weaker reporter binding. As to conditions: Eterna round: R107. The procedure:
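RNA-MaP round R107: designed RNA switches with theophylline, tryptophan, arginine or FMN aptamers are transcribed on-chip within common flanks. They are titrated with SNAP-549-labelled MS2 coat protein in RNA-MaP buffer (100 mM Tris pH 7.5, 80 mM KCl, 4 mM MgCl2), without ligand or with the indicated ligand. Median apparent KD per design.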

Where [1] appears, read: input ligand: theophylline 20 uM.
Setting [2] is: input ligand: tryptophan 2.4 mM.
Where [3] appears, read: input ligand: theophylline 2 mM.

“ACGAACGAUAGUGAUACCAGACGUACAUGAGGAUCACCCAUGUUUUGGGUAAGGUUAAUAGUCCCUUGGCAGCACUUUAAGUUCG [JR_ExcTheophyB_Sub007]”: the “apparent KD of MS2 coat protein” value runs as follows: (input ligand: arginine 13.2 mM) 44.6 nM; under setting [1], 80.8 nM; under setting [2], 50.9 nM.

With “ACGAACUGUAGUGAUACCAGACACACAUGAGGAUCACCCAUGUUGUUAGCAUGGUGAAUAGUCCCUUGGCAGCACAGUUAGUUCG [#12 Exclusion-TheophyllineB]”, the “apparent KD of MS2 coat protein” value reads like this: (input ligand: arginine 13.2 mM) 71.5 nM; under setting [1], 111 nM; under setting [2], 94.3 nM.

In the case of “ACGAUACGACAUGAGGAUCACCCAUGUGAUACCAGCGUGGAAACACGCCCUUGGCAGCACAAAUACUCCAGAAACGUAUCGAAAA [MAT - Exclusion Theophlline A - Mod of Eli - D7]”, the “apparent KD of MS2 coat protein” value is 93.3 nM (input ligand: arginine 13.2 mM), 258 nM under setting [1] and 285 nM under setting [2].

For “ACGAUAGGACCUGAGGAUCACCCAGGUGAUACCAGCCUGGAAACAGGCCCUUGGCAGCACCAAUACUCCAAUAACCUAUCGAAUA [TheoAX 11 #MicroSwitchBubble #AlternativeMS2]”, the “apparent KD of MS2 coat protein” value reads like this: (input ligand: arginine 13.2 mM) 96.8 nM; (input ligand: none) 220 nM; under setting [1], 442 nM; under setting [3], 372 nM; under setting [2], 213 nM.

For the sequence “ACGAUAGGACUUGAGGAACACCCAAGUGAUACCAGCCUGGAAACAGGCCCUUGGCAGCACUAAUACUCCAAUAACCUAUCGAAUA [TheoAX 15 #MicroSwitchBubble #AlternativeMS2]”, the “apparent KD of MS2 coat protein” value is 140 nM (input ligand: arginine 13.2 mM); 212 nM (input ligand: none); 172 nM under setting [1]; 66.7 nM under setting [3]; 155 nM under setting [2].

Regarding “ACGCCCAGGUAGGCUUAGUGGGAAAUGGAAGGAGCGCUGAUGCAAGCAGGUAGGUCGCCAACGAACAUGAGGAUCACCCAUGUAA [Same State - Arginine A (Freestyle 1)]”, the “apparent KD of MS2 coat protein” value turned out to be 14 nM (input ligand: arginine 13.2 mM); 17.9 nM (input ligand: none); 29.8 nM under setting [1]; 20.7 nM under setting [3]; 16.4 nM under setting [2].

With “ACGCGCUGGGCGGCCGCCACUCACCUGCCGUGGACAUUUCGAGGUCACAUGAGGAUCACCCAUGUGAGGACCGGGCCCUGUAGGC [theeternabot_exclusion_MS2_Trp_B_37]”, the “apparent KD of MS2 coat protein” value is 12.3 nM (input ligand: arginine 13.2 mM), 17 nM under setting [1] and 12.7 nM under setting [3].

Turning to “ACGCUGAUUGAUUACAAUCAGCGAAAAGAUACCAGUGGGUAAUCCCACCCUUGGCAGCUUAAACAAGAGGAUCACCCUUGUGGUA [TheoAS 16 #MS2Right #BothOrNeither #AlternativeMS2]”, the “apparent KD of MS2 coat protein” value reads like this: (input ligand: arginine 13.2 mM) 102 nM; (input ligand: none) 201 nM; under setting [1], 370 nM; under setting [3], 238 nM; under setting [2], 521 nM.

With “ACGCUGAUUGAUUACAAUCAGCGAAAAGAUACCAGUGGGUAAUCCCACCCUUGGCAGCUUAAACAUGAGCAUCAGCCAUGUGGUA [TheoAS 15 #MS2Right #BothOrNeither #AlternativeMS2]”, the “apparent KD of MS2 coat protein” value runs as follows: (input ligand: arginine 13.2 mM) 77.9 nM; (input ligand: none) 119 nM; under setting [1], 114 nM; under setting [3], 37.2 nM; under setting [2], 142 nM.

Regarding “ACGGAUCGGAAACGAUCCGCGGCAAGGGUACGAGGACCGGUACGGCCGCCACUCGGCUAACAUGAGGAUCACCCAUGUCCGAAGA [ETA NP+V+V2 #8]”, the “apparent KD of MS2 coat protein” value runs as follows: (input ligand: arginine 13.2 mM) 41.9 nM; (input ligand: none) 60.7 nM; under setting [1], 59.7 nM; under setting [3], 72.2 nM; under setting [2], 72.2 nM.

For the sequence “ACGGAUCGGAAACGAUCCGCGGCUAGGGUGCGAGGACCGGUACGGCCGCCACUCGGGUAACAUGAGGAUCACCCAUGUCCGAUUU [ETA NP+V+V2 #13 Same Structure]”, the “apparent KD of MS2 coat protein” value came to 36.4 nM (input ligand: arginine 13.2 mM); 92.7 nM (input ligand: none); 79 nM under setting [1]; 143 nM under setting [3]; 198 nM under setting [2].

With “ACGUCAUGGAGAACGUGACGACUUAUCGAUACCAGCGAUUGAGAGCGCCCUUGGCAGCGAACAUGAGGAUCACCCAUGUCAAGGG [Same State - Theophylline A]”, the “apparent KD of MS2 coat protein” value (input ligand: arginine 13.2 mM) came out at 29.1 nM, the “apparent KD of MS2 coat protein” value under setting [1] came to 36.5 nM and the “apparent KD of MS2 coat protein” value under setting [2] amounted to 29.4 nM.

Take “ACGUGCAGCAGAAGGAGCGUCUUAAUUCUACAUGAGGAUCACCCAUGUUUACAUUGGAUAUGACAGGUAGGUCGCUGAAGUACGA [#05 Same State - Arginine B]”: the “apparent KD of MS2 coat protein” value is 36.2 nM (input ligand: arginine 13.2 mM); 30 nM (input ligand: none); 41.7 nM under setting [1]; 37.2 nM under setting [3]; 18 nM under setting [2].

“ACUUGUGAGUCGGCCGCCACUCACCGGUAGUGUCACUCGUUCACAAACAUGAGGAUCACCCAUGUGAGGACCGGGACAGUCGGGU [theeternabot_exclusion_MS2_Trp_B_28]”: the “apparent KD of MS2 coat protein” value stood at 13.5 nM (input ligand: arginine 13.2 mM), 25.4 nM under setting [1] and 16.3 nM under setting [3].

Regarding “AGAGGUAUACAUGGAAACAUGUAUAUUUCACGAGGACCGGUACGGCCGCCACUCGGUACCGGAAACACAUGAGGAUCACCCAUGU [Ex_TrypA - H1]”, the “apparent KD of MS2 coat protein” value (input ligand: arginine 13.2 mM) stood at 17 nM, the “apparent KD of MS2 coat protein” value under setting [1] was found to be 23.2 nM and the “apparent KD of MS2 coat protein” value under setting [3] was 24.3 nM.

On to “AGAGUCUAGUCGGCCGCCACUCAUGUCCAAUGGACAUGAGGAUCACCCAUGUACCAAAGGUACAUGAGGACCGGGACUGGACUCA [Omei Tryp B SS C v4]”, for which the “apparent KD of MS2 coat protein” value is, setting by setting: (input ligand: arginine 13.2 mM) 27.2 nM; under setting [1], 209 nM; under setting [3], 83.3 nM.

With “AGAGUUAGACAAAAGUCUAGCUCACCAGAAGGAGCGUCCGAAAGGACAGGUAGGUCGCUGGUACAUGAGGAUCACCCAUGUUCCU [ArgAS 8 #OpenEnded]”, the “apparent KD of MS2 coat protein” value is, setting by setting: (input ligand: arginine 13.2 mM) 43.5 nM; (input ligand: none) 124 nM; under setting [1], 116 nM; under setting [3], 145 nM; under setting [2], 82 nM.
